From PMC7118729

Molecular target: SARS-CoV non-structural protein 15 (Nsp15) [change] (SARS-CoV)
Test: SEC

## SARS-CoV non-structural protein 15 (Nsp15) [change] (enzyme)
  stoichiometry N: 3
